Data: patent US20090042805A1

Target: other caspases
Assay: cell-based or functional assay

With Ac-VDVAD-aldehyde [Ac-VDVAD-cho] as the binder, how does the inhibition of the cleavage of AMC substrates by human recombinant caspases (cross-reaction) read?
The inhibition of the cleavage of AMC substrates by human recombinant caspases (cross-reaction) was less than 20%.
